In doi:10.1101/2023.09.14.557733:

Molecular target: FgSte2-yellow fluorescent protein (F. graminearum)
Test: FRET or BRET

FgSte3-Nano luciferase (receptor)
BRET50 (galactose concentration for donor induction): 2 % galactose
mBRET: 110 mBRET
netBRET: > 0.1 netBRET
